Experimental data published in paper PMC12535202, “N3A motifs in RIβ mediate allosteric crosstalk between cAMP and ATP in PKA activation” (Protein Science : A Publication of the Protein Society, 2025).

Molecular target: the molecule itself
Test: non-reducing SDS-PAGE with Western blot; mouse tissue supernatants (70 μg), sample buffer without reducing agent, unboiled, 8% SDS-PAGE, blot probed with an RIβ-specific antibody

B1: RIβ from mouse brain tissue (natural protein, mouse (endogenous in mouse brain), UniProt P12849 1-381, looked up)
chain: MASPSCFHSEDEDSLKGCEMYVQKHGIQQVLKECIVHLCVAKPDRPLRFLREHFEKLEKEENRQILARQKSNSQCDSHDEEISPTPPNPVVKARRRRGGVSAEVYTEEDAVSYVRKVIPKDYKTMTALAKAISKNVLFSHLDDNERSDIFDAMFPVTHIGGETVIQQGNEGDNFYVIDQGEVDVYVNGEWVTNISEGGSFGELALIYGTPRAATVKAKTDLKLWGIDRDSYRRILMGSTLRKRKMYEEFLSKVSILESLEKWERLTVADALEPVQFEDGEKIVVQGEPGDDFYIITEGTASVLQRRSPNEEYVEVGRLGPSDYFGEIALLLNRPRAATVVARGPLKCVKLDRPRFERVLGPCSEILKRNIQRYNSFISLTV
modifications: disulfide bonded (dimer seen under non-reduced conditions)
notes: PKA regulatory subunit RIβ, endogenous in mouse brain, detected with an RIβ-specific antibody; source: endogenous, mouse brain homogenate (digitonin lysis buffer), supernatant
stoichiometry N: 2
